Data set [1] is described as follows: In vivo biodistribution of Tc-99m chelates in rat inflammation studies. The arrangement: species or system male Wistar rats. Conditions: for In vivo Distribution blood: Tc-99m chelate i.v. tail vein, average of two rats, time (min): RP-022 90, RP-043 88, RP-050 109, RP-063 30, RP-065 30, IgG 120, RP-049 not given; for In vivo Distribution GI tract / In vivo Distribution liver / In vivo Distribution kidney / In vivo Distribution urine: Tc-99m chelate i.v.; for In vivo Distribution GI tract / In vivo Distribution liver: time (min): RP-022 90, RP-043 88, RP-050 109, RP-063 30; for In vivo Distribution kidney: time (min): RP-022 90, RP-043 88, RP-050 109, RP-063 30, RP-049 not given; for In vivo Distribution urine: time (min): RP-022 90, RP-043 88, RP-050 109, RP-063 30, RP-065 30. The procedure: (§1) Rat inflammation studies were performed as follows. 2 male Wistar rats (Charles River, 150-200 g) were injected intramuscularly with zymosan, a yeast cell wall preparation (5 mg) or virulent E. coli (ATCC 25922, 0.1 ml of 0.5×10^9 organisms/ml) suspension into their left hindlegs 24 hours before imaging. Focal inflammation in the leg was visually detectable after 1 day. 1 mg (ca. 0.7 μMol) of the chelator was dissolved in 50 μL of dimethylsulfoxide and added to an ethanol-water mixture (1:1, 200 μL). An aliquot of Tc-99m tartarate (ca. 400 MBq) was added and transchelation allowed to proceed for 20 min. at 100° C. The Tc-99m chelate was purified by elution through a Sep Pak cartridge. The purified tracer solution was further diluted with saline to prepare an injectable (200 μL) containing about 100 μCi (3.7 MBq) of activity.
(§2) The rats were anaesthetized with somnitol (40 to 50 mg/kg), and the Tc-99m chelate solution (200 μL) was injected intravenously via the tail vein. Serial whole-body scintigrams were acquired for the first 5 minutes. Subsequently, further images were obtained at 30, 60, and 120 minutes. The rats were then killed with anaesthesia and samples of organs, urine, blood, inflamed muscle (left leg) and non-inflamed muscle (right leg) were weighted and counted in either a well-type gamma counter or in a gamma dose calibrator. The dose calculations were made based on assumption that the rat weighed 200 g and that the blood volume constituted 8% of body weight. Results are averages for two rats and are corrected for the residual dose in the tail.

The subject of data set [2] is inflamed muscle (left leg), E. coli. As to the kind of experiment: In vivo uptake of Tc-99m chelates in inflamed vs non-inflamed muscle. Further details: species or system male Wistar rats. Conditions: Inflam agent E. coli; for Inflam muscle / Uninfl muscle: time (min): RP-063 30, RP-056 45, IgG 120, others not given; for Infl:Uninfl: ratio inflamed to uninflamed muscle, time (min): RP-063 30, RP-056 45, IgG 120. The procedure:
as §1, §2

Another data set deals with neutrophil receptors. The experiment in a line: Neutrophil binding assay, competition with tritiated fMLP. The settings on record: competition with 15 nM tritiated fMLP, 10^6 rat neutrophils, 1 hour room temperature. The method, then: Rat peripheral neutrophils were prepared for binding assay as follows: blood was obtained by cardiac puncture and anticoagulated with acid- citrate dextrose (ACD) (10%). Red blood cells were removed by sedimentation on hydroxyethyl cellulose (1.1%) for 30 min at room temperature and leukocyte-rich supernatant layered onto 65% percol. […] The remaining neutrophils were resuspended in Hanks Buffered Salt Solution (HBSS) to the desired concentration. Final neutrophil preparation consisted of cells pooled from up to 10 animals, >90% neutrophils and >95% viable by Trypan Blue exclusion.
Binding affinity of the test peptides was assessed by competing off a constant concentration of tritiated fMLP of known affinity for neutrophil receptors. 10^6 neutrophils were added to polypropylene plates containing 15 nM tritiated fMLP and varying concentrations of unlabelled test peptides in a final volume of 150 μL HBSS. […] Filters were then placed in 6 ml scintillation vials, 5 ml of scintillation fluid added (Ecolume) and vials counted using a liquid scintillation counter. […] Specific binding was the total binding less non-specific binding which was the amount of residual radioactivity bound in the presence of 10 μM unlabelled fMLP.

Here are results for 7 substances from US5480970A, “Metal chelators” (Resolution Pharmaceuticals, priority 1993, dated 1996).

Side-chain parts run from the residue outwards. [ ]: non-standard residue; d: D form. The star is where a group is joined. Picolinoyl = O=C(c1ccccn1)*; Nle = CCCC[C@H](N)C(=O)O; Chel = not defined here; Acm = CC(=O)NC*; For = O=C*

Turning to “(Pic-Gly-Cys-Gly)-εNH-Lys(-Gly-OH)-Tyr-Nleu-Phe-Leu-Nleu-for (For-[Nle]LF[Nle]YK([Gly-Cys-Gly-Picolinoyl])G-OH; SMILES CCCC[C@H](NC=O)C(=O)N[C@@H](CC(C)C)C(=O)N[C@@H](Cc1ccccc1)C(=O)N[C@@H](CCCC)C(=O)N[C@@H](Cc1ccc(O)cc1)C(=O)N[C@@H](CCCCNC(=O)CNC(=O)[C@H](CS)NC(=O)CNC(=O)c1ccccn1)C(=O)NCC(=O)O) [RP-022, ID NO: 11]”, in data set [1], the “In vivo Distribution blood” value is on record as 3.036 % per organ, the “In vivo Distribution GI tract” value was found to be 41.285 % per organ, the “In vivo Distribution liver” value is 35.26 % per organ and the “In vivo Distribution kidney” value came to 18.82 % per organ. Moreover, the “In vivo Distribution urine” value in data set [1] came out at 8.400 % per organ.
With “(Pic-Ser-Cys(Acm)-Gly)-Thr-Lys-Pro-Pro-Arg-OH (Picolinoyl-SC(Acm)GTKPPR-OH; SMILES CC(=O)NCSC[C@H](NC(=O)[C@H](CO)NC(=O)c1ccccn1)C(=O)NCC(=O)N[C@H](C(=O)N[C@@H](CCCCN)C(=O)N1CCC[C@H]1C(=O)N1CCC[C@H]1C(=O)N[C@@H](CCCNC(=N)N)C(=O)O)[C@@H](C)O) [RP-063, ID NO: 9]”, in data set [2], the Inflam muscle is given as 0.180 % per gm, the Uninfl muscle came out at 0.050 % per gm and the “Infl:Uninfl” value came to 3.62. In data set [1], the “In vivo Distribution blood” value was 6.370 % per organ, the “In vivo Distribution GI tract” value is listed as 5.080 % per organ, the “In vivo Distribution liver” value is 3.050 % per organ and the “In vivo Distribution kidney” value was determined as 4.170 % per organ. The “In vivo Distribution urine” value in data set [1] turned out to be 44.710 % per organ.
Take “(Pic-Gly-Cys(Acm)-Gly)-εNH-Lys(-Gly-OH)-Tyr-Nleu-Phe-Leu-Nleu-for (For-[Nle]LF[Nle]YK([Gly-Cys(Acm)-Gly-Picolinoyl])G-OH) [RP-050, ID NO: 12]”: the “Infl:Uninfl” value in data set [2] is on record as 3.17. Also, the “binding affinity for neutrophil receptors” value in the data set with neutrophil receptors was “greater binding affinity for neutrophil receptors than native fMLP”. In data set [1], the “In vivo Distribution blood” value was 3.436 % per organ, the “In vivo Distribution GI tract” value is listed as 25.777 % per organ, the “In vivo Distribution liver” value turned out to be 20.866 % per organ and the “In vivo Distribution kidney” value worked out at 11.470 % per organ. For the same substance, in data set [1], the “In vivo Distribution urine” value stood at 14.050 % per organ.
Regarding “Pic-Gly-Cys(Acm)-Gly-OH (Picolinoyl-Gly-Cys(Acm)-Gly-OH; SMILES CC(=O)NCSC[C@H](NC(=O)CNC(=O)c1ccccn1)C(=O)NCC(=O)O) [RP-049, ID NO: 8]”, in data set [2], the Inflam muscle stood at 0.077 % per gm, the Uninfl muscle was 0.019 % per gm and the “Infl:Uninfl” value came to 4.24. In data set [1], the “In vivo Distribution blood” value stood at 0.187 % per organ and the “In vivo Distribution kidney” value was found to be 21.700 % per organ.
As to “(Pic-Gly-Cys(Acm)-Gly)-ε-NH-Lys(-Asp-Gly-OH)-Lys-Tyr-Nleu-Phe-Leu- Nleu-for (For-[Nle]LF[Nle]YKK([Gly-Cys(Acm)-Gly-Picolinoyl])DG-OH) [RP-056, ID No. 13]”, in data set [2], the Inflam muscle amounted to 0.143 % per gm, the Uninfl muscle was found to be 0.041 % per gm and the “Infl:Uninfl” value is on record as 3.52. In addition, in the data set with neutrophil receptors, the “binding affinity for neutrophil receptors” value is “greater binding affinity for neutrophil receptors than native fMLP”.
As to “(Pic-Ser-Cys(Acm)-Gly)-Lys-Pro-Pro-Arg-OH (Picolinoyl-SC(Acm)GKPPR-OH; SMILES CC(=O)NCSC[C@H](NC(=O)[C@H](CO)NC(=O)c1ccccn1)C(=O)NCC(=O)N[C@@H](CCCCN)C(=O)N1CCC[C@H]1C(=O)N1CCC[C@H]1C(=O)N[C@@H](CCCNC(=N)N)C(=O)O) [RP-065, ID NO: 10]”, in data set [2], the Inflam muscle is 0.125 % per gm, the Uninfl muscle is on record as 0.059 % per gm and the “Infl:Uninfl” value is reported as 2.1. In data set [1], the “In vivo Distribution blood” value came to 3.520 % per organ and the “In vivo Distribution urine” value was found to be 53.000 % per organ.
Turning to “Chel-Gly-Cys(Acm)-Gly-OH (reading uncertain; also: printed as Chel-Gly-Cys(Acm)-Gly-OH) [RP-043, ID NO: 6]”, in data set [1], the “In vivo Distribution blood” value is 1.016 % per organ, the “In vivo Distribution GI tract” value turned out to be 52.619 % per organ, the “In vivo Distribution liver” value amounted to 0.953 % per organ and the “In vivo Distribution kidney” value was determined as 4.359 % per organ. For the same substance, the “In vivo Distribution urine” value in data set [1] is 33.950 % per organ.
